In patent publication US20160002343A1 (AbbVie / Abbott, published 2016):
One block for each binder: values may come before it.

Assays:
[1] = target: T1, TNF (mouse, UniProt P06804 80-235); assay: cell-based or functional assay
T1 sequence (looked up): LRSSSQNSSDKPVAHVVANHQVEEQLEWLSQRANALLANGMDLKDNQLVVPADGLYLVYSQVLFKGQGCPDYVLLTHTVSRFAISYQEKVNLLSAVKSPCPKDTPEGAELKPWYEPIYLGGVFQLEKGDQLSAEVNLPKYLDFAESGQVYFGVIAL

[2] = target: T2, mouse Transferrin Receptor overexpressed on Hek 293 cells (mouse, UniProt Q62351 1-763); assay: 293/mTfR cell-based assay
T2 construct: whole, on cells; also called mTfR; Hek293/mTfR
Experimental: (§1) Meso-scale Discovery (MSD) Electrochemiluminescence (ECL) assays to screen for antibodies or DVD-Ig proteins that bind a desired target antigen expressed on the cell surface were performed as follows: Hek 293 cells overexpressing mouse Transferrin Receptor were added onto MSD 96-well plates (MSD Cat# L11 XB-3, lot#2290-EA). The plates which were blocked using blocking buffer (30% FBS Serum (Hyclone) in PBS) at 37° C. for 1 hour. After incubating at room temperature (RT) for 30 minutes with mild agitation, plates were washed with DPBS 3 times and Abs/DVD-Ig proteins (10,000 ng/ml) were added. After incubating for 1 hour at RT, plates were washed 3 times with DPBS and 25 μl of Goat anti-human Sulfo TAG (MSD Cat# R32AC-, Lot# W001162) at 1 μg/ml was added. Following incubation at RT for 1 hour, plates were washed and MSD read buffer was added before reading on a MSD SECTOR Imager 6000. EC50 values were obtained using Xlfit4 software package.

[3] = target: T2, mouse Transferrin Receptor …; assay: cell-based MSD-ECL binding, Hek293/mTfR cells
Experimental: as §1

[4] = target: T2, mouse Transferrin Receptor …; assay: EC50 column of Table 13, taken as the cell-based mTfR binding assay
Experimental: as §1

[5] = target: mouse Transferrin Receptor overexpressed on Hek 293 cells (mouse) (UniProt Q62351); assay: binding signal on TfR against 'Ab, ng/ml'; format not stated for this figure, Examples 4 and 9 describe the cell-based Hek293/mTfR MSD-ECL binding assay
[6] = target: mouse Transferrin Receptor overexpressed on Hek 293 cells (mouse) (UniProt Q62351); assay: mTfR binding cell-based assay
[7] = target: rmTfR (119-763) (mouse) (UniProt Q62351); assay: Biacore SPR, antibody captured by anti-human IgG Fc, rmTfR (119-763) in solution
[8] = target: mouse Transferrin Receptor overexpressed on Hek 293 cells (mouse) (UniProt Q62351); assay: cell-based MSD-ECL binding, Hek293/mTfR cells
[9] = target: mouse Transferrin Receptor overexpressed on Hek 293 cells (mouse) (UniProt Q62351); assay: TfR binding EC50, cell-based assay (repeats Table 7)

rmTfR (119-763) (mouse), sequence (Q62351 119-763): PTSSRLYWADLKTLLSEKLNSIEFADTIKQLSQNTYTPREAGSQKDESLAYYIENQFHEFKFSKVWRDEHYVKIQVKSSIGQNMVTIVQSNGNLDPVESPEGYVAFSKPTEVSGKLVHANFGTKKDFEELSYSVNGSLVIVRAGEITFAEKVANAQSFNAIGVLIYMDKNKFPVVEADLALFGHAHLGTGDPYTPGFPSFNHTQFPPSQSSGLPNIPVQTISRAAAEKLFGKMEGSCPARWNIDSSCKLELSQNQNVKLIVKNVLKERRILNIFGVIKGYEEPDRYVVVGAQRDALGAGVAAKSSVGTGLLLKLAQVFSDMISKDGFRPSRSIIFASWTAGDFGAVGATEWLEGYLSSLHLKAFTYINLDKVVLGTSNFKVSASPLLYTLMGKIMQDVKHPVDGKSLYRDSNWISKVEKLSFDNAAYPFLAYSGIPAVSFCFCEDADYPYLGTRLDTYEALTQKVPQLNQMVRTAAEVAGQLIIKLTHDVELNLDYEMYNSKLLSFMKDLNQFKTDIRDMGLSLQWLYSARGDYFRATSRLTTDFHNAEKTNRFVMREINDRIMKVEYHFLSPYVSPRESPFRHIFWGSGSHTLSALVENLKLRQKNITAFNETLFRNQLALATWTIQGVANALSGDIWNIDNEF
T2 sequence (Q62351 whole entry): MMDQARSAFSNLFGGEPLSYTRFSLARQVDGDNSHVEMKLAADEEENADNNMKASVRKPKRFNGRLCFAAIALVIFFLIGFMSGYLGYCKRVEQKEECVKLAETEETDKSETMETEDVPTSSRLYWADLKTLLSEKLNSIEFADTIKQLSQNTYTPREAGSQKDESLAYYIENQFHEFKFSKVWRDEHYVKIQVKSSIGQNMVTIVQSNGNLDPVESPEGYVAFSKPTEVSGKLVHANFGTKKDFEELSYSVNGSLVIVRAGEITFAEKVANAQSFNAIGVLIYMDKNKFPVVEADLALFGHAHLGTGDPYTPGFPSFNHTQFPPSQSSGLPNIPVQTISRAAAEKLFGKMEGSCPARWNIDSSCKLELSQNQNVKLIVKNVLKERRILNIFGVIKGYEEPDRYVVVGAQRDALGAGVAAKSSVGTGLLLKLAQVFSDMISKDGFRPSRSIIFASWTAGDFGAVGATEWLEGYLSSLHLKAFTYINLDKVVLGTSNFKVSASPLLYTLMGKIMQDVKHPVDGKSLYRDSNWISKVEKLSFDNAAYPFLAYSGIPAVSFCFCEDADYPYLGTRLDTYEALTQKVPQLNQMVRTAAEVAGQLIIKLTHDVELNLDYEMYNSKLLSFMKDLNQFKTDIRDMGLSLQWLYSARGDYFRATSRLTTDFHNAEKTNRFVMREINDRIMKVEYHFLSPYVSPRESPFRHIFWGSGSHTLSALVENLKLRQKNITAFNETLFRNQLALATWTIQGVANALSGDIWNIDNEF
mouse Transferrin Receptor overexpressed on Hek 293 cells (mouse), sequence (Q62351 whole entry): as above

L929 TNF Neutralization assay IC50 [1]: 0.59 nM
EC50 [2]: 1.68 nM
B1: muTNF(8C11)-GS-muTfR(AB221) (bispecific antibody)
VH: EFQLQQSGPELVKPGASVRISCKASGYSFTDYNMNWVKQSNGKSLEWVGVINPNYGSSTYNQKFKGKATLTVDQSSSTAYMQLNSLTSEDSAVYYCARKWGQLGRGFFDVWGTGTTVTVSSGGGGSGGGGSEVQLVESGGGLVQPGNSLTLSCVASGFTFSNYGMHWIRQAPKKGLEWIAMIYYDSSKMNYADTVKGRFTISRDNSKNTLYLEMNSLRSEDTAMYYCAVPTSHYVVDVWGQGVSVTVSS
VL: QIVLSQSPAILSASPGEKVTMTCRASSSVSYMHWFQQKPGSSPKPWIYATSNLASGVPARFSGSGSGTSYSLTISRVEAEDAATYYCQQWSSSPLTFGAGTKLELKRGGSGGGGSGDIQMTQSPASLSASLEEIVTITCQASQDIGNWLAWYQQKPGKSPQLLIYGATSLADGVPSRFSGSRSGTQFSLKISRVQVEDIGIYYCLQAYNTPWTFGGGTKLELK
notes: DVD-Ig; outer 8C11 (TNF), inner AB221 (TfR); also called 8C11-GS-AB221 DVD-Ig protein; TNF-GS-AB221; copies: 2 + 2

L929 TNF Neutralization assay IC50 [1]: 5 nM
B2: anti-TNF antibody 8C11 (antibody, V domains shown)
VH: EFQLQQSGPELVKPGASVRISCKASGYSFTDYNMNWVKQSNGKSLEWVGVINPNYGSSTYNQKFKGKATLTVDQSSSTAYMQLNSLTSEDSAVYYCARKWGQLGRGFFDVWGTGTTVTVSS
VL: QIVLSQSPAILSASPGEKVTMTCRASSSVSYMHWFQQKPGSSPKPWIYATSNLASGVPARFSGSGSGTSYSLTISRVEAEDAATYYCQQWSSSPLTFGAGTKLELKR

EC50 [3]: 1.2 nM
EC50 [4]: 1.2 nM
B3: DVD2671 (bispecific antibody)
VH: EVQLLESGGGLVQPGGSLRLSCAASGFTFSNYGMSWVRQAPGKGLEWVASIRSGGGRTYYSDNVKGRFTISRDNSKNTLYLQMNSLRAEDTAVYYCVRYDHYSGSSDYWGQGTLVTVSSASTKGPSVFPLAPEVQLVESGGGLVQPGNSLTLSCVASGFTFSNYGMHWIRQAPKKGLEWIAMIYYDSSKMNYADTVKGRFTISRDNSKNTLYLEMNSLRSEDTAMYYCAVPTSHYVVDVWGQGVSVTVSS
VL: DVVMTQSPLSLPVTPGEPASISCKSSQSLLDSDGKTYLNWLLQKPGQSPQRLIYLVSKLDSGVPDRFSGSGSGTDFTLKISRVEAEDVGVYYCWQGTHFPRTFGQGTKVEIKRTVAAPDIQMTQSPASLSASLEEIVTITCQASQDIGNWLAWYQQKPGKSPQLLIYGATSLADGVPSRFSGSRSGTQFSLKISRVQVEDIGIYYCLQAYNTPWTFGGGTKLELK
notes: DVD-Ig; also called AbetaLSTfR

EC50 (read off the curve) [5]: 0.03 µg/mL
EC50 [6]: 0.12 nM
Kd [7]: 5 nM
koff [7]: 0.000181 s⁻¹
kon [7]: 39400 M⁻¹ s⁻¹
EC50 [8]: 0.1 nM
EC50 [9]: 0.1 nM
B4: AB221 (antibody, from another filing, V domains shown)
VH: EVQLVESGGGLVQPGNSLTLSCVASGFTFSNYGMHWIRQAPKKGLEWIAMIYYDSSKMNYADTVKGRFTISRDNSKNTLYLEMNSLRSEDTAMYYCAVPTSHYVVDVWGQGVSVTVSS
VL: DIQMTQSPASLSASLEEIVTITCQASQDIGNWLAWYQQKPGKSPQLLIYGATSLADGVPSRFSGSRSGTQFSLKISRVQVEDIGIYYCLQAYNTPWTFGGGTKLELKR

EC50 [6]: 13.6 nM
EC50 [8]: 13.6 nM
EC50 [9]: 13.6 nM
B5: AB405 (antibody, from another filing, V domains shown)
VH: QVQLVQSGAEVKKPGASVKVSCKASGFTFSNYGMHWIRQAPGQGLEWIAMIYYDSSKMNYADTVKGRFTITRDNSTNTLYMELSSLRSEDTAVYYCAVPTSHYVVDVWGQGTTVTVSS
VL: EIVMTQSPATLSVSPGERATLSCQASQDIGNWLAWYQQKPGQSPRLLIYGATSLADGVPARFSGSRSGTEFTLTISSLQSEDFAVYYCLQAYNTPWTFGGGTKVEIKR
